Reference: patent US20230046834A1 (BROWN UNIVERSITY, published 2023)

T1: recombinant human (rh) CTLA4 (human, UniProt P16410 36-161, limits assumed)
T1 construct: Recombinant protein; also called human CTLA4; CD152
T1 sequence (looked up): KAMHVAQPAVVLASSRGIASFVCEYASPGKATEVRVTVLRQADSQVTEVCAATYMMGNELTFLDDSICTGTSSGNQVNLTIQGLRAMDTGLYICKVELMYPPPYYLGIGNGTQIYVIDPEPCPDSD


Tests used:
[1] = target: T1, recombinant human (rh) CTLA4; assay: competitive ELISA
[2] = target: T2, recombinant human (rh) CHI3L1 (human, UniProt P36222 22-383); assay: competitive ELISA
T2 construct: Recombinant protein; also called human CHI3L1; chitinase 3-like-1
T2 sequence (P36222 22-383 limits assumed): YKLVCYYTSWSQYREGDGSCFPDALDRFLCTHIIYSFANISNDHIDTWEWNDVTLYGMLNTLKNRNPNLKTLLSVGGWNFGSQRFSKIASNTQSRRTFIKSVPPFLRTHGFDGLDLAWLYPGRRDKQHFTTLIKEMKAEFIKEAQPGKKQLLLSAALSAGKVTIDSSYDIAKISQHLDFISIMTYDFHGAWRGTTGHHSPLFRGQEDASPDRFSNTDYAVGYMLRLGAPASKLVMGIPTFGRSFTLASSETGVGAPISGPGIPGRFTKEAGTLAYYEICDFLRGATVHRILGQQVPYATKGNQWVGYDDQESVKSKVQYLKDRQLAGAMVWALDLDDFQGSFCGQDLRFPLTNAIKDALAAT

| Kd [1] [nM] | limit of detection (LOD) [1] [ng/mL] | Kd [2] [nM] | limit of detection (LOD) [2] [ng/mL] | Binder |
| --- | --- | --- | --- | --- |
| ~1 | 2 | ~1 | 2 | CHI3L1-HC-CTLA4 bispecific antibody (ScFv-CTLA4 attached to the heavy chain of the anti-human CHI3L1 antibody FRG) (bispecific antibody) chain 1: QVQLQQSGAELMKPGASVKISCRTTGYTFSSYWIEWVKQRPGHGLEWIGEILPGSGSTNCNEKFKGKATFTADTSSNTAYMQLSSLTSEDSAVYYCVRSDDYYDYWGQGTTLTVSSVEGGSGGSGGSGGSGGVDQVQLVQSGAEVVQPGRSLRLSCAASGFTFSSYTMHWVRQAPGKGLEWVTFISYDGNNKYYADSVKGRFTISRDNSKNTLYLQMNSLRSEDTAVYYCARTGWLGPFDYWGQGTLVTVSSGGGGSGGGGSGGGGSGGGGSEIVLTQSPATLSLSPGERATLSCRASQSVGSSYLAWYQQKPGQAPRLLIYGAFSRATGIPARFSGSGSGTDFTLTISSLEPEDFAVYYCQQYGSSPWTFGQGTKVEIK chain 2: DVLMTQTPLSLPVSLGDQASISCRSSQTIVHSNGNTYLEWYLQKPGQSPKLLIYKVSNRFSGVPDRFSGSGSGTDFTLKISRVEAEDLGVYYCFQGSHVPPTFGGGTKLEIK |
| ~1 | 2 | ~1 | 2 | CHI3L1-LC-CTLA4 bispecific antibody (ScFv-CTLA4 attached to the light chain of the anti-human CHI3L1 antibody FRG) (bispecific antibody) chain 1: QVQLQQSGAELMKPGASVKISCRTTGYTFSSYWIEWVKQRPGHGLEWIGEILPGSGSTNCNEKFKGKATFTADTSSNTAYMQLSSLTSEDSAVYYCVRSDDYYDYWGQGTTLTVSS chain 2: DVLMTQTPLSLPVSLGDQASISCRSSQTIVHSNGNTYLEWYLQKPGQSPKLLIYKVSNRFSGVPDRFSGSGSGTDFTLKISRVEAEDLGVYYCFQGSHVPPTFGGGTKLEIKVEGGSGGSGGSGGSGGVDQVQLVQSGAEVVQPGRSLRLSCAASGFTFSSYTMHWVRQAPGKGLEWVTFISYDGNNKYYADSVKGRFTISRDNSKNTLYLQMNSLRSEDTAVYYCARTGWLGPFDYWGQGTLVTVSSGGGGSGGGGSGGGGSGGGGSEIVLTQSPATLSLSPGERATLSCRASQSVGSSYLAWYQQKPGQAPRLLIYGAFSRATGIPARFSGSGSGTDFTLTISSLEPEDFAVYYCQQYGSSPWTFGQGTKVEIK |
|  |  | ~1 | 2 | anti-human CHI3L1 antibody (called "CHI3L1" or "FRG") (antibody, V domains shown) VH: QVQLQQSGAELMKPGASVKISCRTTGYTFSSYWIEWVKQRPGHGLEWIGEILPGSGSTNCNEKFKGKATFTADTSSNTAYMQLSSLTSEDSAVYYCVRSDDYYDYWGQGTTLTVSS VL: DVLMTQTPLSLPVSLGDQASISCRSSQTIVHSNGNTYLEWYLQKPGQSPKLLIYKVSNRFSGVPDRFSGSGSGTDFTLKISRVEAEDLGVYYCFQGSHVPPTFGGGTKLEIK |
